From the supplement of paper PMC10567573 come the findings set out here.

To fix the notation:
B1: ESRRA (parent)
chain: SLPLQDELAFAEDLVLDEEGARAA
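Note: lentivirally expressed fusions sorted by FACS into six bins by GFP to DsRed ratio, PSI derived from sequencing read proportions per bin multiplied by bin number.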

The variants in the data set derive from B1. Kind of data set: protein stability index of a GFP-peptide fusion (GPS, HEK-293T) (PSI 1-6); higher = more stable. Conditions: c terminus: a fixed tail appended.
With SLPLQDELAFAEDLVLDEEGTRAA [A21T], the protein stability index is 3.75. Regarding SLPLQDELAFAEDLVLDEEGPRAA [A21P], the protein stability index was found to be 3.14. Turning to SLPLQDELAFAEDLVLDEEGIRAA [A21I], the protein stability index stood at 2.87. On to SLPLQDELAFAEDLVLDEEGMRAA [A21M], for which the protein stability index was determined as 3.61. With SLPLQDELAFAEDLVLDEEGVRAA [A21V], the protein stability index was determined as 3.14. For SLPLQDELAFAEDLVLDEEGYRAA [A21Y], the protein stability index amounted to 2.63. The same measure for SLPLQDELAFAEDLVLDEEGGRAA [A21G]: 2.77; for SLPLQDELAFAEDLVLDEEGNRAA [A21N]: 2.91; for SLPLQDELAFAEDLVLDEEGQRAA [A21Q]: 2.29.

For SLPLQDELAFAEDLVLDEEGKRAA [A21K], the protein stability index was found to be 2.66. The figure for SLPLQDELAFAEDLVLDEEGSRAA [A21S] is 4.05; for SLPLQDELAFAEDLVLDEEGDRAA [A21D] it is 3.81. As for SLPLQDELAFAEDLVLDEEGCRAA [A21C], the protein stability index came out at 3.01. Turning to SLPLQDELAFAEDLVLDEEGRRAA [A21R], the protein stability index was 3.41. Turning to SLPLQDELAFAEDLVLDEEGFRAA [A21F], the protein stability index stood at 3.5. The same measure for SLPLQDELAFAEDLVLDEEGERAA [A21E]: 3.38. The figure for SLPLQDELAFAEDLVLDEEGWRAA [A21W] is 3.2; for SLPLQDELAFAEDLVLDEEGHRAA [A21H] it is 3.09; for SLPLQDELAFAEDLVLDEEGLRAA [A21L] it is 3.63. The same measure for SLPLQDELAFAEDLVLDEEGARRA [A23R]: 2.83; for SLPLQDELAFAEDLVLDEEGARMA [A23M]: 2.43. For the variant SLPLQDELAFAEDLVLDEEGARVA [A23V], the protein stability index turned out to be 3.21. Take SLPLQDELAFAEDLVLDEEGARTA [A23T]: the protein stability index is 3.08. Regarding SLPLQDELAFAEDLVLDEEGARFA [A23F], the protein stability index turned out to be 2.89. The figure for SLPLQDELAFAEDLVLDEEGARYA [A23Y] is 2.62; for SLPLQDELAFAEDLVLDEEGARWA [A23W] it is 2.44. SLPLQDELAFAEDLVLDEEGARSA [A23S]: the protein stability index came out at 3.42. The same measure for SLPLQDELAFAEDLVLDEEGARGA [A23G]: 4.15; for SLPLQDELAFAEDLVLDEEGARNA [A23N]: 3.21. Regarding SLPLQDELAFAEDLVLDEEGARLA [A23L], the protein stability index came to 2.56. Take SLPLQDELAFAEDLVLDEEGARIA [A23I]: the protein stability index is 2.87. The same measure for SLPLQDELAFAEDLVLDEEGAREA [A23E]: 3.66; for SLPLQDELAFAEDLVLDEEGARKA [A23K]: 2.65; for SLPLQDELAFAEDLVLDEEGARCA [A23C]: 2.98.

Consider SLPLQDELAFAEDLVLDEEGARDA [A23D], for which the protein stability index was 3.39.

In the case of SLPLQDELAFAEDLVLDEEGARHA [A23H], the protein stability index stood at 2.95. The figure for SLPLQDELAFAEDLVLDEEGARPA [A23P] is 3.35; for SLPLQDELAFAEDLVLDEEGARQA [A23Q] it is 3.19; for SLPLQDELAFAEDLVLDEEGARAE [A24E] it is 3.5. SLPLQDELAFAEDLVLDEEGARAL [A24L]: the protein stability index was found to be 2.75. For SLPLQDELAFAEDLVLDEEGARAF [A24F], the protein stability index is 2.14. With SLPLQDELAFAEDLVLDEEGARAP [A24P], the protein stability index turned out to be 3.21.

As to SLPLQDELAFAEDLVLDEEGARAC [A24C], the protein stability index came to 2.94. On to SLPLQDELAFAEDLVLDEEGARAR [A24R], for which the protein stability index was found to be 2.8. The figure for SLPLQDELAFAEDLVLDEEGARAQ [A24Q] is 3.05; for SLPLQDELAFAEDLVLDEEGARAT [A24T] it is 3.94; for SLPLQDELAFAEDLVLDEEGARAG [A24G] it is 3.22. Take SLPLQDELAFAEDLVLDEEGARAS [A24S]: the protein stability index is 2.82.

As to SLPLQDELAFAEDLVLDEEGARAH [A24H], the protein stability index worked out at 3.66.

Consider SLPLQDELAFAEDLVLDEEGARAD [A24D], for which the protein stability index is 3.71.

SLPLQDELAFAEDLVLDEEGARAV [A24V]: the protein stability index was 3.06. Turning to SLPLQDELAFAEDLVLDEEGARAK [A24K], the protein stability index was determined as 2.96. The figure for SLPLQDELAFAEDLVLDEEGARAN [A24N] is 2.28. The figure for SLPLQDELAFAEDLVLDEEGARAM [A24M] is 2.97; for SLPLQDELAFAEDLVLDEEGARAW [A24W] it is 2.74.

SLPLQDELAFAEDLVLDEEGARAI [A24I]: the protein stability index worked out at 2.92. The same measure for SLPLQDELAFAEDLVLDEEGARAY [A24Y]: 3; for SLPLQDELAFAEDLVLDEEGAGAA [R22G]: 3.13; for SLPLQDELAFAEDLVLDEEGALAA [R22L]: 3.73. In the case of SLPLQDELAFAEDLVLDEEGAVAA [R22V], the protein stability index is 3.69.

SLPLQDELAFAEDLVLDEEGACAA [R22C]: the protein stability index is 3.2. The figure for SLPLQDELAFAEDLVLDEEGAMAA [R22M] is 3.42. As to SLPLQDELAFAEDLVLDEEGASAA [R22S], the protein stability index came to 3.62. The same measure for SLPLQDELAFAEDLVLDEEGANAA [R22N]: 3.36. The same measure for SLPLQDELAFAEDLVLDEEGAHAA [R22H]: 3.65. The same measure for SLPLQDELAFAEDLVLDEEGAWAA [R22W]: 2.53; for SLPLQDELAFAEDLVLDEEGAAAA [R22A]: 3.35; for SLPLQDELAFAEDLVLDEEGAIAA [R22I]: 2.94.

For the variant SLPLQDELAFAEDLVLDEEGADAA [R22D], the protein stability index amounted to 4.19. The figure for SLPLQDELAFAEDLVLDEEGAPAA [R22P] is 3.01.

For the variant SLPLQDELAFAEDLVLDEEGAKAA [R22K], the protein stability index worked out at 3.12.

For SLPLQDELAFAEDLVLDEEGATAA [R22T], the protein stability index stood at 4.45. As to SLPLQDELAFAEDLVLDEEGAQAA [R22Q], the protein stability index was found to be 3.45. Regarding SLPLQDELAFAEDLVLDEEGAEAA [R22E], the protein stability index was 4.36.

With SLPLQDELAFAEDLVLDEEGAFAA [R22F], the protein stability index was found to be 3.24. The same measure for SLPLQDELAFAEDLVLDEEGAYAA [R22Y]: 3.01; for SLPLQDELAFAEDLVLDEEDARAA [G20D]: 3.46; for SLPLQDELAFAEDLVLDEEQARAA [G20Q]: 3.93. The figure for SLPLQDELAFAEDLVLDEEEARAA [G20E] is 5.11. Consider SLPLQDELAFAEDLVLDEEKARAA [G20K], for which the protein stability index was found to be 3.4. The same measure for SLPLQDELAFAEDLVLDEEVARAA [G20V]: 4.

Take SLPLQDELAFAEDLVLDEEMARAA [G20M]: the protein stability index was found to be 2.51. The figure for SLPLQDELAFAEDLVLDEEIARAA [G20I] is 3.08; for SLPLQDELAFAEDLVLDEENARAA [G20N] it is 3.52. The same measure for SLPLQDELAFAEDLVLDEEFARAA [G20F]: 3.47; for SLPLQDELAFAEDLVLDEETARAA [G20T]: 4.05.

On to SLPLQDELAFAEDLVLDEEYARAA [G20Y], for which the protein stability index was 2.44. The figure for SLPLQDELAFAEDLVLDEEHARAA [G20H] is 2.9; for SLPLQDELAFAEDLVLDEERARAA [G20R] it is 3.38; for SLPLQDELAFAEDLVLDEEWARAA [G20W] it is 2.67. The same measure for SLPLQDELAFAEDLVLDEESARAA [G20S]: 4.04; for SLPLQDELAFAEDLVLDEEPARAA [G20P]: 3.7.

On to SLPLQDELAFAEDLVLDEELARAA [G20L], for which the protein stability index turned out to be 3.04. As to SLPLQDELAFAEDLVLDEECARAA [G20C], the protein stability index is 2.6.
